± gives the standard deviation of the averaged measurements.
System: ATP
Assay: switch fluorescence ratio, 500 uM ATP over buffer (Cy3 cluster intensity, sum of 5 cycles each) (fold (ratio)); higher = stronger signal-on switching upon ATP binding; sequences stand for … in TCGTCGGCAGCGTCAGATGTGTATAAGAGACAGTTTTTTTTTTTTTTTTTTTTTTTTT…TC
Details: aptamer strand: ATP DNA aptamer (quencher-CACCTGGGGGAGTATTGCGGAGGAAGG + anchor), 100 nM annealed; ATP concentration: 500 uM
How it was run: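 After annealing to 100 nM quencher-labelled ATP aptamer, Cy3-labelled switching-strand clusters on a modified Illumina MiSeq flow-cell were imaged in selection buffer. A second image followed after 15 min with 500 uM ATP at 22 °C, and five such buffer/ATP cycles were done, each separated by NaOH stripping and re-annealing. The fluorescence ratio, averaged per switch-domain sequence, is summed target-cycle over summed buffer-cycle Cy3 intensity per cluster, with clusters outside 100-1000 RFU excluded.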
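Note: ATP exposure 15 min at 22 °C before imaging.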

| Sequence | switch fluorescence ratio |
| --- | --- |
| GGAGGGGGTT | 1.01 ± 0.051 |
| ACTTGCTTTA | 1.04 ± 0.017 |
| GTTGTTGCTT | 0.982 ± 0.029 |
| TAGGCTGTAC | 2.84 ± 1.6 |
| TTCCATGGCC | 1.04 ± 0.044 |
| GAAGGGGTTC | 1.06 ± 0.084 |
| GTTATGCCGG | 0.97 ± 0.094 |
| CAACGCGTTG | 1 ± 0.013 |
| GGTTTAAGCA | 0.982 ± 0.034 |
| GCAAGGGGGG | 1.09 ± 0.081 |
| TAATCCCTTT | 1.01 ± 0.04 |
| TAAATTAGTT | 1.01 ± 0.017 |
| GCGCACCTTT | 1.01 ± 0.029 |
| GCGATGGGTC | 1.06 ± 0.0091 |
| TCAGTCAAGG | 0.9745 ± 0.0044 |
| CGTACTAGAT | 0.9959 ± 0.0086 |
| TATGTAGGAG | 0.994 ± 0.018 |
| GACCCTAAC | 1.14 ± 0.016 |
| ATGCAGGATT | 0.981 ± 0.02 |
| TATTGTTGAC | 1.037 ± 0.01 |
| CTTAGCGGCC | 1.007 ± 0.0038 |
| TTTTGAGGGG | 1.01 ± 0.042 |

| Sequence | switch fluorescence ratio |
| --- | --- |
| CGGGTGATCG | 0.96 ± 0.043 |
| TTGTTTTTT | 1.03 ± 0.018 |
| GCATGCTTAA | 0.9876 ± 0.006 |
| TAAGGCGCCG | 0.962 ± 0.031 |
| GAGTATTCGG | 0.998 ± 0.031 |
| AAAGAACGCT | 1.04 ± 0.015 |
| TGTGGGACGT | 0.952 ± 0.01 |
| TCCTTAGTTC | 0.969 ± 0.035 |
| TCCGGGAGTG | 1.078 ± 0.0027 |
| TGGTGCAGGA | 0.9776 ± 0.0092 |
| GGCTAGCCAG | 1.01 ± 0.011 |
| TTTAATTCTT | 1 ± 0.012 |
| ATATAGGTGG | 0.999 ± 0.026 |
| ACGTACCGGC | 1.31 ± 0.075 |
| ATAGTATAAG | 1.002 ± 0.0073 |
| TTAAGTAGGA | 1 ± 0.017 |
| AATGCGCATC | 1.05 ± 0.023 |
| TTCGTGCAGG | 1.02 ± 0.043 |
| GGTCTGTTAT | 1.04 ± 0.078 |
| GTTAGTGTGC | 0.984 ± 0.013 |
| AGAATCGAGT | 1.01 ± 0.025 |
